The results in this text go back to the supplement of paper PMC9170038.

The data set relates to MS2 coat protein. Nature of the data set: apparent KD of MS2 coat protein; designed switch direction (-1 OFF switch, 1 ON switch): 1; higher = weaker reporter binding. In short, it runs like this:
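Apparent KD, taken as the median over clusters for each design, was obtained by curve-fitting normalised cluster fluorescence. Designed RNA switches had been transcribed on Illumina chips by stalled E. coli RNA polymerase and titrated with SNAP-549-labelled MS2 coat protein, doubling from 0.7 or 1.5 nM to 3 µM.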

The mark [1] stands for this setting: input ligand: microRNA oligo, concentration not stated.
Where [2] appears, read: Eterna round: R95, input ligand: FMN 200 uM.
[3] abbreviates: Eterna round: R95, input ligand: microRNA oligo, concentration not stated.
Where [4] appears, read: Eterna round: R95, input ligand: none.

In the case of “GUUACAUGAGGAUCACCCAUGUAUGUGUGGGAGUAAGUGUCUUAGGAUAUCUGGUAUUUAAUUUAAGAGAAGGAAGAUUGUUGU [JMF's solution 30] (Eterna round: R96, puzzle: Same State NG 3)”, the “apparent KD of MS2 coat protein” value amounted to 91.9 nM (input ligand: FMN 200 uM), 63.7 nM under setting [1] and 77.3 nM (input ligand: none).
For the sequence “AAGAAUCUAUCUCAGGAUAUCAUGUCAAAGACAUGAGGAUCACCCAUGUACCAGGAAACUGGUUAUGAGAAGGGAGAUAGAUUCU [Mat - Same State 2 - Mod - D32] (puzzle: Same State 2)”, the “apparent KD of MS2 coat protein” value by setting is: under setting [2], 99.4 nM; under setting [3], 30.6 nM; under setting [4], 282 nM.
The corresponding values for “AGUCCAGCAUGAGCUGGACAAAAGCAUGUACAUGAGGAUCACCCAUGUUCAUGUACAAGCUUUUUGCUCGUCUUAAU [Mat - hsa-mir-208a - Mod of JL - 61] (puzzle: Sensor for hsa-mir-208a)” are 549 nM, 15.9 nM and 698 nM.
With “UGGUACAUGGGAGGAUAUGGAGUUGAGACAUGAGGAUCACCCAUGUUAUAAAAGCCGAGAGGCAACUAGAAGGCCCAUGUACCU [JL SSNG1 3.92] (Eterna round: R96, puzzle: Same State NG 2)”, the “apparent KD of MS2 coat protein” value is, setting by setting: (input ligand: FMN 200 uM) 10.2 nM; under setting [1], 49.9 nM; (input ligand: none) 62.9 nM.
As for “UAUCCAUAGAUAGGAUAUUAGAGAACAUGAGGAUCACCCAUGUUUGGCUUGGUUUUAAGCUAAUCUAAGAAGGAUCUUGAUGAA [SameState NG2 #9] (Eterna round: R96, puzzle: Same State NG 2)”, the “apparent KD of MS2 coat protein” value reads like this: (input ligand: FMN 200 uM) 13.3 nM; under setting [1], 22.9 nM; (input ligand: none) 36.5 nM.
Regarding “AAGAAAUCCGCAGGAUAUCCUAAGCCGGGCUUAGGAGAAGGGUGGCCACAUGAGGAUCACCCAUGUAAAGGCUGAAUCACAGCC [Disois] (Eterna round: R96, puzzle: Same State NG 1)”, the “apparent KD of MS2 coat protein” value (input ligand: FMN 200 uM) is 662 nM, the “apparent KD of MS2 coat protein” value under setting [1] worked out at 268 nM and the “apparent KD of MS2 coat protein” value (input ligand: none) came to 491 nM.
On to “UUUAUACAUGAGGAUCACCCAUGUCAAUGUAGUCGAGGAUAUGGGCAGCUGUGAGGCGUACUAGAAGGCGAAGAGG [JL-ss1-3.09 ViennaUCT mod] (puzzle: Same State 1)”, for which the “apparent KD of MS2 coat protein” value under setting [2] was determined as 103 nM, the “apparent KD of MS2 coat protein” value under setting [3] was determined as 378 nM and the “apparent KD of MS2 coat protein” value under setting [4] is 579 nM.
Turning to “UCUUGGUUUUUGCUCGUUUUUUGUGUUGAACAUGAGGAUCACCCAUGUAUUGUACAAUCCAAUUUAAUAAUGGUCCG [JMF 48] (puzzle: Sensor for hsa-mir-208a)”, the “apparent KD of MS2 coat protein” value is, setting by setting: under setting [2], 74.7 nM; under setting [3], 81.7 nM; under setting [4], 94 nM.
With “UCUUGGUUUUUGCUCGUUUUUUGUGUUGAACAUGAGGAUCACCCAUGUAUUGUACAAUCCAAUUUAAUAAUGGUCCG [JMF 48] (Eterna round: R96, puzzle: Sensor for hsa-mir-208a)”, the “apparent KD of MS2 coat protein” value amounted to 105 nM (input ligand: FMN 200 uM), 70.1 nM under setting [1] and 99.2 nM (input ligand: none).
Consider “UGACACACGGCAGGAUAUCGUUAGCAAAGCUAACGAGAAGGGCCUCAUGUCGUGGAAACGUGACAUGAGGAUCACCCAUGUUGC [Omei SS(NG)1 Cv10] (Eterna round: R96, puzzle: Same State NG 1)”, for which the “apparent KD of MS2 coat protein” value was determined as 204 nM (input ligand: FMN 200 uM), 12.4 nM under setting [1] and 53.7 nM (input ligand: none).
As for “AUUAAACAUGAGGAUCACCCAUGUCAACAAAGUCGAGGAUAUGGGCAAAUAAUAUAAGAACCAGAAGGCGAAUAAU [salish99_ss1_r3_058] (puzzle: Same State 1)”, the “apparent KD of MS2 coat protein” value is 32.1 nM under setting [2], 440 nM under setting [3] and 275 nM under setting [4].
